Test results published in patent publication US20170204176A1 (MacroGenics, published 2017).

How the values were obtained:
[1] = target: T1, DR5 on DR5-expressing CHO cells (UniProt O14763 56-440, limits assumed); test: FACS on DR5-expressing CHO cells (Log MFI)
T1 construct: whole, on cells; also called DR5-expressing CHO target cells
Description: The ability of Tri-Specific Binding Molecules of the present invention to bind to target cells was investigated.

[2] = target: T2, EphA2 on EphA2-expressing CHO cells (UniProt P29317 24-976, limits assumed); test: FACS on EphA2-expressing CHO cells (Log MFI)
T2 construct: whole, on cells; EphA2 mAb 1 is called an anti-human EphA2 antibody; also called EphA2-expressing CHO target cells

[3] = target: T3, EphA2 on DU145 human prostate cells (human, UniProt P29317 24-976); test: FACS on DU145 cells (gpA33- EphA2+ DR5+), Log MFI; only the EphA2 domain has its antigen on these cells
T3 construct: whole, on cells; DU145 cells carry both EphA2 and DR5; also called DU145 cells (express EphA2 and DR5, not gpA33)

[4] = target: T3, EphA2 on DU145 human prostate cells; test: FACS on DU145 cells (gpA33- EphA2+ DR5+), Log MFI
[5] = target: T4, DR5 on DU145 human prostate cells (human, UniProt O14763 56-440); test: FACS on DU145 cells (gpA33- EphA2+ DR5+), Log MFI
T4 construct: whole, on cells; DU145 cells carry both EphA2 and DR5; also called DU145 cells (express EphA2 and DR5, not gpA33)

[6] = target: T5, His-tagged human DR5 (human, UniProt O14763 56-210, limits assumed); test: Biacore (SPR); DR5 mAb 1×CD3 mAb 2 diabody with His-tagged human DR5
T5 construct: whole precursor entry named; also called His-tagged DR5; not shown: His tag

[7] = target: T6, His-tagged cynomolgus monkey DR5 (cynomolgus monkey (Macaca fascicularis)); test: Biacore (SPR); DR5 mAb 1×CD3 mAb 2 diabody with His-tagged cynomolgus monkey DR5
T6 construct: also called His-tagged DR5
Protocol: (§1) Bi-specific DR5×CD3 diabodies were incubated with His-tagged DR5 and the kinetics of binding was determined via Biacore analysis.

[8] = target: T6, His-tagged cynomolgus monkey DR5; test: Biacore (SPR); DR5 mAb 2×CD3 mAb 2 diabody with His-tagged cynomolgus monkey DR5
Protocol: as §1

[9] = target: T6, His-tagged cynomolgus monkey DR5; test: Biacore (SPR); DR5 mAb 3×CD3 mAb 2 diabody with His-tagged cynomolgus monkey DR5
Protocol: as §1

B1: gpA33 mAb 1×CD3 mAb 2×DR5 mAb 1 (other)
chain 1: DIQLTQSPSFLSASVGDRVTITCSARSSISFMYWYQQKPGKAPKLLIYDTSNLASGVPSRFSGSGSGTEFTLTISSLEAEDAATYYCQQWSSYPLTFGQGTKLEIKGGGSGGGGEVQLVESGGGLVQPGGSLRLSCAASGFTFSTYAMNWVRQAPGKGLEWVGRIRSKYNNYATYYADSVKGRFTISRDDSKNSLYLQMNSLKTEDTAVYYCVRHGNFGNSYVSWFAYWGQGTLVTVSSGGCGGGEVAALEKEVAALEKEVAALEKEVAALEKGGGDKTHTCPPCPAPEAAGGPSVFLFPPKPKDTLMISRTPEVTCVVVDVSHEDPEVKFNWYVDGVEVHNAKTKPREEQYNSTYRVVSVLTVLHQDWLNGKEYKCKVSNKALPAPIEKTISKAKGQPREPQVYTLPPSREEMTKNQVSLWCLVKGFYPSDIAVEWESNGQPENNYKTTPPVLDSDGSFFLYSKLTVDKSRWQQGNVFSCSVMHEALHNHYTQKSLSLSPGK
chain 2: QAVVTQEPSLTVSPGGTVTLTCRSSTGAVTTSNYANWVQQKPGQAPRGLIGGTNKRAPWTPARFSGSLLGGKAALTITGAQAEDEADYYCALWYSNLWVFGGGTKLTVLGGGGSGGGGQVQLVQSGAEVKKPGASVKVSCKASGYTFTGSWMNWVRQAPGQGLEWIGRIYPGDGETNYNGKFKDRVTITADKSTSTAYMELSSLRSEDTAVYYCARIYGNNVYFDVWGQGTTVTVSSGGCGGGKVAALKEKVAALKEKVAALKEKVAALKE
heavy: EVKFLESGGGLVQPGGSLKLSCVASGFDFSRYWMSWVRQAPGKGLEWIGEINPDSNTINYTPSLKDKFIISRDNAKNTLYLQMTKVRSEDTALYYCTRRAYYGNPAWFAYWGQGTLVTVSSASTKGPSVFPLAPSSKSTSGGTAALGCLVKDYFPEPVTVSWNSGALTSGVHTFPAVLQSSGLYSLSSVVTVPSSSLGTQTYICNVNHKPSNTKVDKRVEPKSCDKTHTCPPCPAPEAAGGPSVFLFPPKPKDTLMISRTPEVTCVVVDVSHEDPEVKFNWYVDGVEVHNAKTKPREEQYNSTYRVVSVLTVLHQDWLNGKEYKCKVSNKALPAPIEKTISKAKGQPREPQVYTLPPSREEMTKNQVSLSCAVKGFYPSDIAVEWESNGQPENNYKTTPPVLDSDGSFFLVSKLTVDKSRWQQGNVFSCSVMHEALHNRYTQKSLSLSPGK
light: DIVLTQSPASLAVSLGQRATISCRASKSVSSSGYSYMHWYQQKPGQPPKVLIFLSSNLDSGVPARFSGSGSGTDFTLNIHPVEDGDAATYYCQHSRDLPPTFGGGTKLEIKRTVAAPSVFIFPPSDEQLKSGTASVVCLLNNFYPREAKVQWKVDNALQSGNSQESVTEQDSKDSTYSLSSTLTLSKADYEKHKVYACEVTHQGLSSPVTKSFNRGEC
[1]
  EC50 (read off the curve): ~0.9 nM
[2]
  binding result: no binding

B2: EphA2 mAb 1×CD3 mAb 2×gpA33 mAb 1 (other)
chain 1: DIQMTQTTSSLSASLGDRITISCRASQDISNYLNWYQQKPDGTVKLLIYYTSRLHSGVPSRFSGSGSGTDYSLTISNLEQEDIATYFCQQGYTLYTFGGGTKLEIKGGGSGGGGEVQLVESGGGLVQPGGSLRLSCAASGFTFSTYAMNWVRQAPGKGLEWVGRIRSKYNNYATYYADSVKGRFTISRDDSKNSLYLQMNSLKTEDTAVYYCVRHGNFGNSYVSWFAYWGQGTLVTVSSGGCGGGEVAALEKEVAALEKEVAALEKEVAALEKGGGDKTHTCPPCPAPEAAGGPSVFLFPPKPKDTLMISRTPEVTCVVVDVSHEDPEVKFNWYVDGVEVHNAKTKPREEQYNSTYRVVSVLTVLHQDWLNGKEYKCKVSNKALPAPIEKTISKAKGQPREPQVYTLPPSREEMTKNQVSLWCLVKGFYPSDIAVEWESNGQPENNYKTTPPVLDSDGSFFLYSKLTVDKSRWQQGNVFSCSVMHEALHNHYTQKSLSLSPGK
chain 2: QAVVTQEPSLTVSPGGTVTLTCRSSTGAVTTSNYANWVQQKPGQAPRGLIGGTNKRAPWTPARFSGSLLGGKAALTITGAQAEDEADYYCALWYSNLWVFGGGTKLTVLGGGGSGGGGQVQLKESGPGLVAPSQSLSITCTVSGFSLSRYSVHWVRQPPGKGLEWLGMIWGGGSTDYNSALKSRLSISKDNSKSQVFLKMNSLQTDDTAMYYCARKHGNYYTMDYWGQGTSVTVSSGGCGGGKVAALKEKVAALKEKVAALKEKVAALKE
heavy: QVQLVQSGAEVKKPGASVKVSCKASGYTFTGSWMNWVRQAPGQGLEWIGRIYPGDGETNYNGKFKDRVTITADKSTSTAYMELSSLRSEDTAVYYCARIYGNNVYFDVWGQGTTVTVSSASTKGPSVFPLAPSSKSTSGGTAALGCLVKDYFPEPVTVSWNSGALTSGVHTFPAVLQSSGLYSLSSVVTVPSSSLGTQTYICNVNHKPSNTKVDKRVEPKSCDKTHTCPPCPAPEAAGGPSVFLFPPKPKDTLMISRTPEVTCVVVDVSHEDPEVKFNWYVDGVEVHNAKTKPREEQYNSTYRVVSVLTVLHQDWLNGKEYKCKVSNKALPAPIEKTISKAKGQPREPQVYTLPPSREEMTKNQVSLSCAVKGFYPSDIAVEWESNGQPENNYKTTPPVLDSDGSFFLVSKLTVDKSRWQQGNVFSCSVMHEALHNRYTQKSLSLSPGK
light: DIQLTQSPSFLSASVGDRVTITCSARSSISFMYWYQQKPGKAPKLLIYDTSNLASGVPSRFSGSGSGTEFTLTISSLEAEDAATYYCQQWSSYPLTFGQGTKLEIKRTVAAPSVFIFPPSDEQLKSGTASVVCLLNNFYPREAKVQWKVDNALQSGNSQESVTEQDSKDSTYSLSSTLTLSKADYEKHKVYACEVTHQGLSSPVTKSFNRGEC
[1]
  binding result: no binding
[2]
  EC50 (read off the curve): ~0.9 nM
[3]
  EC50 (read off the curve): ~1 nM

B3: gpA33 mAb 1 x CD3 mAb 2 (bispecific antibody)
first polypeptide chain (VL gpA33 mAb 1 - Linker 1 - VH CD3 mAb 2 D65G - ASTKG - cysteine-containing E-coil): DIQLTQSPSFLSASVGDRVTITCSARSSISFMYWYQQKPGKAPKLLIYDTSNLASGVPSRFSGSGSGTEFTLTISSLEAEDAATYYCQQWSSYPLTFGQGTKLEIKGGGSGGGGEVQLVESGGGLVQPGGSLRLSCAASGFTFSTYAMNWVRQAPGKGLEWVGRIRSKYNNYATYYADSVKGRFTISRDDSKNSLYLQMNSLKTEDTAVYYCVRHGNFGNSYVSWFAYWGQGTLVTVSSASTKGEVAACEKEVAALEKEVAALEKEVAALEK
second polypeptide chain (VL CD3 mAb 2 - Linker 1 - VH gpA33 mAb 1 - ASTKG - cysteine-containing K-coil): QAVVTQEPSLTVSPGGTVTLTCRSSTGAVTTSNYANWVQQKPGQAPRGLIGGTNKRAPWTPARFSGSLLGGKAALTITGAQAEDEADYYCALWYSNLWVFGGGTKLTVLGGGGSGGGGQVQLVQSGAEVKKPGASVKVSCKASGYTFTGSWMNWVRQAPGQGLEWIGRIYPGDGETNYNGKFKDRVTITADKSTSTAYMELSSLRSEDTAVYYCARIYGNNVYFDVWGQGTTVTVSSASTKGKVAACKEKVAALKEKVAALKEKVAALKE
[1]
  binding result: no binding
[2]
  binding result: no binding
[4]
  binding result: no binding
[5]
  binding result: no binding

B4: DR5 mAb 1×CD3 mAb 2 diabody (bispecific antibody)
chain 1: DIVLTQSPASLAVSLGQRATISCRASKSVSSSGYSYMHWYQQKPGQPPKVLIFLSSNLDSGVPARFSGSGSGTDFTLNIHPVEDGDAATYYCQHSRDLPPTFGGGTKLEIKGGGSGGGGEVQLVESGGGLVQPGGSLRLSCAASGFTFSTYAMNWVRQAPGKGLEWVGRIRSKYNNYATYYADSVKGRFTISRDDSKNSLYLQMNSLKTEDTAVYYCVRHGNFGNSYVSWFAYWGQGTLVTVSSASTKGEVAACEKEVAALEKEVAALEKEVAALEK
chain 2: QAVVTQEPSLTVSPGGTVTLTCRSSTGAVTTSNYANWVQQKPGQAPRGLIGGTNKRAPWTPARFSGSLLGGKAALTITGAQAEDEADYYCALWYSNLWVFGGGTKLTVLGGGGSGGGGEVKFLESGGGLVQPGGSLKLSCVASGFDFSRYWMSWVRQAPGKGLEWIGEINPDSNTINYTPSLKDKFIISRDNAKNTLYLQMTKVRSEDTALYYCTRRAYYGNPAWFAYWGQGTLVTVSAASTKGKVAACKEKVAALKEKVAALKEKVAALKE
notes: Two-chain bi-specific DR5×CD3 diabody
[6]
  Kd: 0.14 nM
[7]
  Kd: 32.5 nM

B5: DR5 mAb 2×CD3 mAb 2 diabody (bispecific antibody)
chain 1: DIVMTQSHKFMSTSVGDRVSITCKASQDVNTAVAWYQQKPGQSPKLLIYWASTRHTGVPDRFTGSGSGTDYTLTIKSVQAEDLTLYYCQQHYITPWTFGGGTKLEIKGGGSGGGGEVQLVESGGGLVQPGGSLRLSCAASGFTFSTYAMNWVRQAPGKGLEWVGRIRSKYNNYATYYADSVKGRFTISRDDSKNSLYLQMNSLKTEDTAVYYCVRHGNFGNSYVSWFAYWGQGTLVTVSSASTKGEVAACEKEVAALEKEVAALEKEVAALEK
chain 2: QAVVTQEPSLTVSPGGTVTLTCRSSTGAVTTSNYANWVQQKPGQAPRGLIGGTNKRAPWTPARFSGSLLGGKAALTITGAQAEDEADYYCALWYSNLWVFGGGTKLTVLGGGGSGGGGKVQLQQSGAELVKPGASVKLSCKASGYTFTEYILHWVKQKSGQGLEWIGWFYPGNNNIKYNEKFKDKATLTADKSSSTVYMELSRLTSEDSAVYFCARHEQGPGYFDYWGQGTTLTVSSASTKGKVAACKEKVAALKEKVAALKEKVAALKE
notes: as for B4
[8]
  Kd: 0.42 nM

B6: DR5 mAb 3×CD3 mAb 2 diabody (bispecific antibody)
chain 1: SELTQDPAVSVALGQTVRITCSGDSLRSYYASWYQQKPGQAPVLVIYGANNRPSGIPDRFSGSSSGNTASLTITGAQAEDEADYYCNSADSSGNHVVFGGGTKLTVLGGGGSGGGGEVQLVESGGGLVQPGGSLRLSCAASGFTFSTYAMNWVRQAPGKGLEWVGRIRSKYNNYATYYADSVKGRFTISRDDSKNSLYLQMNSLKTEDTAVYYCVRHGNFGNSYVSWFAYWGQGTLVTVSSASTKGEVAACEKEVAALEKEVAALEKEVAALEK
chain 2: QAVVTQEPSLTVSPGGTVTLTCRSSTGAVTTSNYANWVQQKPGQAPRGLIGGTNKRAPWTPARFSGSLLGGKAALTITGAQAEDEADYYCALWYSNLWVFGGGTKLTVLGGGGSGGGGEVQLVQSGGGVERPGGSLRLSCAASGFTFDDYAMSWVRQAPGKGLEWVSGINWQGGSTGYADSVKGRVTISRDNAKNSLYLQMNSLRAEDTAVYYCAKILGAGRGWYFDYWGKGTTVTVSSASTKGKVAACKEKVAALKEKVAALKEKVAALKE
notes: Two-chain bi-specific DR5×CD3 diabody with the VL and VH of drozitumab (DR5 mAb 3); also called drozitumab variable domains
[9]
  Kd: 13.3 nM
